# Source: the RNAGym collection of RNA variant scans (doi:10.1073/pnas.2313332121)
# B1: TPR t1 (parent)
# chain: GACCAAUCUGCCCUCAGAGCUCGAGAACAUCUUCGGAUGCAGAGGAGGCAGGCUUCGGUGGCGCGAUAGCGCCAACGUCCUCAACCUCCAAUGCAUCCCACCACAUGAUGAUGCCUGAAGAGCCUUGGUUUUUUG
# Variants of: B1
# Test: polymerase ribozyme fitness, log enrichment relative to wild type (log ratio); higher = more active; in vitro selection for triplet polymerase activity
# Method in brief: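 In triplicate, a single round of in vitro selection was run on each mutant library, PCR-built and transcribed, covering one subunit of a heterodimeric triplet polymerase ribozyme. Frozen incubation at −7 °C followed annealing with a biotinylated primer, partner subunit and triplets, and extended constructs were then gel-excised, streptavidin-captured and taken through RT-PCR. Fitness is the logarithm of genotype enrichment over wild-type enrichment, from inverse-variance-weighted replicate averages of Illumina-sequenced inputs and outputs. […] only genotypes with ≥10 input reads and ≥1 read per output were kept.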
row,Variant,polymerase ribozyme fitness (log ratio)
1,U7C G135C,-0.63
2,A6U C22U G51A,-5.76
3,A6U U30C,-2.71
4,A6G C12U A43C U54C C56U A66G C72U C73A,-6.56
5,A6C C13U C53U C85U A105U C124A U126G,-3.62
6,A6U C13A U21C,-1.41
7,A6U A43U G63C G113U,-3.4
8,A6G U14G G58A,-0.642
9,A6G U7G A18C G48U C53A G63A C115A U133A,-1.29
10,A6U G45U G52C C72U G122A,-2.56
11,A6C C76A C79U,-0.8
12,A6U G52U C53G C70U G128C,-2.99
13,U7C C13G C72A,-0.177
14,A6G C88U G113U,-2.37
15,A6U G113A,-1.07
16,A6U G113C,-2.6
17,A6G C64U C73U G117C,-2.37
18,U7A C8A C13U C56U G61A C79U G120A,-4.91
19,U7A U106A,0.182
20,A6C G48A C82A,-1.56
21,A6G A90G U112A,1.69

row,Variant,polymerase ribozyme fitness (log ratio)
1,U7A A27U G48U U87C G120U,-2.16
2,A6U G10C C12U C49A G69C A90C A91U,-2.98
3,A6C U9G G69U A83G A91C G117U G135A,0.71
4,A6C C11A C85U U112G,-2.47
5,U7A U21C,0.0698
6,A6U G60C,0.0676
7,U7A G17U G117A A118G,-2.58
8,A6G C12U G36U G52U C70U U96G A121C,-2.52
9,A6C C40U G60A C73G G107U C124U,-5.46
10,A6G G48A G52C C85G U112C,-0.453
11,A6C G10A C13A A75G U125G,-0.518
12,A6U C8A,0.618
13,U7C C62A C99G U112G U132C U134A G135U,-7.59
14,U7C A66U U106C,-1.58
15,A6U G57C G63A A90G,-0.878
16,A6U C15A C56A A75G A105C,-4.99
17,U7C C34A G44C A84U,-4.89
18,A6C C40G A95C,-5.15
19,A6C C53A G69C G120A,-1.04
20,U7A A103C,-4.75
21,U7A A46G C70U A111C G113A,-3.8

row,Variant,polymerase ribozyme fitness (log ratio)
1,A6C G47A C62U C86U U133G,-0.219
2,U7A C49U G52U G61A G120A,0.469
3,A6C G39U,-1.84
4,A6G G63U C124A G128U,-1.92
5,A6U U55C C76U,-0.164
6,A6U C76U,-0.345
7,U7A G52U G60A G61C C62U,-6.92
8,A6G C8A U125A,0.146
9,U7C C8G,-0.253
10,A6G C72A,0.991
11,A6G C72U,0.164
12,A6G C70A,-2.41
13,A6U A29G G44A C82A,-2.51
14,U7C C70U,-1.31
15,U7C C34U G61U C88A U116A,-5.7
16,A6C U21A A37G A90G G120U G127U,-0.919
17,U7C U9G A26G C72A,-1.08
18,A6U G19C C82U C94A A111C,-4.5
19,A6U U14G,-1.38
20,A6C C56G,-0.703
21,U7A C13U A41U C82A G127A,-2.71

row,Variant,polymerase ribozyme fitness (log ratio)
1,U7A U9C C15A A41U C56U U92G,-1.45
2,U7C G42U G60C G120A C124G G128A,-3.07
3,A6G G52U,-1.27
4,U7A G60U U112A,1.29
5,A6G U30C G63A A111U G127C,-5.37
6,U7C G39A,-0.619
7,A6U G110U,-1.36
8,U7A C62U U129A,-0.65
9,A6U C12U U81C,-0.545
10,A6C G48U C53U U59G C64U A95G,-3.63
11,U7A A50U G57A A83U,-1.44
12,A6U G60U C64U A91G C102G G110U,-7.78
13,A6G A16G G17U A18G G47A G61U,-3.02
14,U7C G57U,0.0649
15,U7C G57A,-0.108
16,A6U A50G C123A G128C,-0.104
17,A6G G25A C34U G42C G69C U87C C114A C124U,-6.61
18,A6G U14A C72U C88U G93A,-1.77
19,U7A C20U G120U,-0.3
20,U7A G61C,-1.93
